According to patent publication US20230405070A1, “PLECTRANTHUS AMBOINICUS EXTRACT FOR USE IN INHIBITING IMMUNE RESPONSES” (Oneness Biotech Co., Ltd., priority 2022, published 2023):

Tested on: M1 macrophages
Experiment: Recombinant GCSF / CXCL3 co-administered with M1-polarizing cytokines
Type: cell-based, human
Procedure: For detection of M1 and M2 macrophage markers, cultured cells were suspended then blocked by 20 μL/10^4 of FcR Blocking Reagent (Miltenyi Biotec, Cologne, Germany). Antibodies listed in Table 1 and isotype signal for normalization were listed in Table 3 were used at 5 μL per 10^5 cells.
Cell lysates for immunoblotting were prepared using an M-PER mammalian protein extraction kit containing protease and phosphatase inhibitor cocktail (Thermo-Fisher Scientific). Immunoblotting using the indicated antibodies (listed in Table 1) was performed as described previously (Lu et al., J Immunother Cancer, 2020).
Next, experiments were performed to analyze whether the genes altered by ON101 treatment in diabetic wounds could be produced by ADPCs upon ON101 treatment and focused on candidate genes detected in wound tissues in ON101-treated db/db mice (FIGS. 4E-4F). […] To test whether GCSF and CXCL3 might be involved in the marker switch between M1 and M2 macrophages, recombinant GCSF and CXCL3 proteins, with or without their neutralizing antibodies, were co-administrated with M1-polarizing cytokines. […] Both GCSF- and CXCL3-mediated inductions of M2a/c markers were abolished by the corresponding neutralizing antibodies (FIGS. 8G-8H). In addition, both GCSF and CXCL3 treatments activated Stat3 signaling pathways, whereas GCSF activated Akt phosphorylation, which was again abolished by their corresponding antibodies (FIG. 8I).

[1] = recombinant protein with M1-polarizing cytokines, 48 h

Molecule | Stat3 signaling (immunoblot) | CD163 expression [1] | Akt phosphorylation (immunoblot) | CD206 expression [1]
CXCL3: recombinant CXCL3 protein co-administrated with M1-polarizing cytokines | activated | only induced CD163 expression | – | –
GCSF: recombinant GCSF protein co-administrated with M1-polarizing cytokines (protein, UniProt P09919 31-207, looked up) Granulocyte …: TPLGPASSLPQSFLLKCLEQVRKIQGDGAALQEKLVSECATYKLCHPEELVLLGHSLGIPWAPLSSCPSQALQLAGCLSQLHSGLFLYQGLLQALEGISPELGPTLDTLQLDVADFATTIWQQMEELGMAPALQPTQGAMPAFASAFQRRAGGVLVASHLQSFLEVSYRVLRHLAQP | activated | concentration-dependent increase | activated | concentration-dependent increase
